The assay deals with T1, Human LSD2 (residues 51-822) with N-terminal extra residues GPGS, as used for co-crystallization (human, UniProt Q8NB78 51-822).
T1 construct: range 51-822; Construct of the LSD2-NPAC (PDB 4GUT) and LSD2-NPAC-H3K4M (PDB 4GUS, 4GUR) co-crystals; also called KDM1b; AOF1
T1 sequence: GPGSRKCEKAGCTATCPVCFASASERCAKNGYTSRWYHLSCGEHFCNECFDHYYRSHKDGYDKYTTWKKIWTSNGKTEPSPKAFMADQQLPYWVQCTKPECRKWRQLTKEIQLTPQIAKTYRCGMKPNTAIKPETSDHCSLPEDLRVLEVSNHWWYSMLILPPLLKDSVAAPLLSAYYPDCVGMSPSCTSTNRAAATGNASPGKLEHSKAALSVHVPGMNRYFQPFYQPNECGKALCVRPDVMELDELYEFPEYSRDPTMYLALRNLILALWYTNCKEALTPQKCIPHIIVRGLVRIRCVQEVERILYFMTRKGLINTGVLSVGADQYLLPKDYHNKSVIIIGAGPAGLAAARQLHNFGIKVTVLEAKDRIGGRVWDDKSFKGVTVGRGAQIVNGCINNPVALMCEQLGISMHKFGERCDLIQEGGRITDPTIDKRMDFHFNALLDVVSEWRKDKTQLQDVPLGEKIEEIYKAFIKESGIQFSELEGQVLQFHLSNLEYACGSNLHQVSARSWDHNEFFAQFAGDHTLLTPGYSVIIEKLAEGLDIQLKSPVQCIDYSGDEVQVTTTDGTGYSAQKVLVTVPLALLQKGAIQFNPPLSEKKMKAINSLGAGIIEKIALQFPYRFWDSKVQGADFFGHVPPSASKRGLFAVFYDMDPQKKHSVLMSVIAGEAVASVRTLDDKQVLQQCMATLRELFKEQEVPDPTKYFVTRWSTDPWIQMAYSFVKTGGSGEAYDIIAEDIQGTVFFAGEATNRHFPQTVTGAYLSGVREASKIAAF
Put plainly: co-crystal structures of LSD2 with the NPAC linker region (residues 152-268).

Protocol: Crystallization and Data Collection. All crystals were grown using the hanging-drop vapor diffusion method. […] All crystals were examined on X8 Proteum system (Bruker AXS) and data sets were collected on beamline BL17U at Shanghai Synchrotron Radiation Facility (Shanghai, China).

B1: NPAC linker region (residues 152-268), as used for co-crystallization (other)
chain: SERGSKSPLKRAQEQSPRKRGRPPKDEKDLTIPESSTVKGMMAGPMAAFKWQPTASEPVKDADPHFHHFLLSQTEKPAVCYQAITKKLKICEEETGSTSIQAADSTAVNGSITPTDK
notes: Expressed with His6 and GST tags that were removed by 3C protease
Take B1: the binding result is on record as “binds”.

The values are drawn from US20150329644A1 (BRIGHAM AND WOMEN S HOSPITAL, published 2015).
